Values quoted from earlier work in PMC3749945.

Target: Cdc42 (Homo sapiens) (UniProt P60953)
Chain of UniProt P60953 (P60953 1-188): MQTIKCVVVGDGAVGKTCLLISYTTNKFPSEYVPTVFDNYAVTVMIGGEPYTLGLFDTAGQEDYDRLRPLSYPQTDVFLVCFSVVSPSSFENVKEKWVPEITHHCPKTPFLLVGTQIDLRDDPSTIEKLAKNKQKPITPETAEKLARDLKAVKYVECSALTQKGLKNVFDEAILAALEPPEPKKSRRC

Substance: WASP (from UniProt P42768)
- Kd: 74 nM
